First the molecules themselves.
B1: PRT-16 (protein)
chain: MANQEIRYSEETPYHITSVWTKGVTPPTDFTQGEDVFHAPYVANQGWYDITKTFNGKDDLLCGAATAGNMLHWWFDQNKDQIERYLKKHPEKQKINFNGEQMFDVKEAIDTKDSQTDSKLFEYFKDKAFPYLSTKHLGVFPDHVLDMFINGYRLNLTNHGPTPVKEGSKDPRGGIFDAVFTRGDQSKLLTSRHDFKEKNLKEISDLIKQELQEGKALGLSHTYANVRINHVINLWGADFDSNGNLKAIYVTDSDSNASIGMKKYYVGVNAAGKVAISAKEIEEDNIGAQVLGLFTLSLGQDIWNQTN
B2: PRT-19 (protein)
chain: MANQEIRYSEESPSVVTSVWTKGVTPPANFTYGEDVFHAPYIANQGWYDITKTFNGKDDLLCGAATAGNMLHWWFDQNKDEIEAYLKKHPEKQKINFNGEQMFDVKEAIDTKDDQTNSKLFNYFKDKAFPYLSTKHLGVFPDHVLDMFINGYRLNLTNHGPTPVKEGSKDPRGGIFDAVFTRGDQSKLLTSRHDFKEKTLKEISDLIKQELTEGKALGLSHTYANVRINHVINLWGADFNSEGNLKAIYVTDSDSNASIGMKKYFVGVNAAGKVAISAKEIKDDNIGAQVLGLFTLSTGQDIWNQTN
B3: PRT-21 (protein)
chain: MANQEIRYSEVSPSTVTSVWTKGVTPPTNFTYGEDVLHAPYVANQGWYDITKTFNGKDDLLCGAATAGNMLHWWFDQNKEQIENYLKKHPEKQKINFNGEQMFDVKEAIDTKDSQLDSKLFEYFKEKAFPYLSTKHLGVFPDHVIDMFINGYRLSLTNHGPTPVKRGSKDPRGGIFDAVFTRGDQSKLLTNRHDFKEKTLKEISDLIKQELTEGKALGISHTYANVRINHVINLWGADFDAEGNLEAIYVTDSDSNASIGMKKYFVGVNSNGKVAISAKEIEEDNIGAQVLGLFTLSTGQDIWNQTN
B4: PRT-17 (protein)
chain: MANQEIRYSEVTPYHITSVWTKGVTPPTNFTQGEDVFHAPYKANQGWYDITKTFNGKDDLLCGAATAGNMLHWWFDQNKEEIERYLKEHPEKQKINFNGEQMFDVKEAIDTKGSQTDSKLFNYFKDKAFPYLSTKHLGVFPDHVLDMFINGYRLSLTNHGPTPVKEQSKDPRGGIFDAVFTRGDQSKLLTSRHDFKEKNLKEISDLIKKELTEGKALGLSHTYANVRINHVINLWGADFDSEGNLEAIYVTDSDSNASIGMKKYFVGVNSAGKVAISAKEIKGDNIGAQVLGLFTLSTGQDIWEKTN
B5: PRT-162 (protein)
chain: MANQEIRYSEVTPYHVTSVWTKGVTPPANFTQGEDVFHAPYVANQGWYDITKTFNGKDDLLCGAATAGNMLHWWFDQNKDQIKRYLEEHPEKQKINFNGEQMFDVKEAIDTKNSQTNSELFNYFKEKAFPYLSTKHLGVFPDHVIDMFINGYRLSLTNHGPTPVKEGSKDPRGGIFDAVFTRGDQSKLLTSRHDFKEKNLKEISDLIKKELTEGKALGLSHTYANVRINHVINLWGADFDSNGNLKAIYVTDSDSNASIGMKKYFVGVNSAGKVAISAKEIKEDNIGAQVLGLFTLSTGQDSWNQTN
B6: PRT-164 (protein)
chain: B5 chain with T116E
B7: PRT-163 (protein)
chain: B5 chain with S114D
B8: PRT-165 (protein)
chain: B5 chain with K57G
B9: PRT-166 (protein)
chain: B5 chain with T53A, N55D, K57G
B10: PRT-227 (protein)
chain: MEVVEVWPYGQNPNGKTEILSQTEDSESLQRLRDIEDFQAEKKMQNVVYTKWLDGVDVKDHDFRKIVDGNIAYYATPLLNGRGFYDINKDFNRDSDKCAAAVAANMFHYWLDINRDNVDRFLRQNPEKHGIIELPDGQLKLSDFLNTYESDHGYRDKSKLFDFISNNFNGPVWTDKLLDNYINGYAYNYKYGRTIEDPTKNTSKINFFKEVFNEKILTNNHSIRNQNEFSVLLSEALYTGKAIGLSYGPAGLRHSLGHIISVWGADLDADGNVVAIYVTDSDDKKLTIGDERVGLKRYKISTDDENRLRLTAYEETHNTGGQIRGLYTLDTGKYAWADYFDKTEQTGTDQAEQLEHHHHHH
B11: PRT-229 (protein)
chain: B10 chain with M44K, Y327W
B12: PRT-230 (protein)
chain: B10 chain with H152N, Y327W
B13: PRT-228 (protein)
chain: B10 chain with V231D, Y327W
B14: PRT-231 (protein)
chain: B10 chain with L308A, Y327W
B15: PRT-18 (protein)
chain: MANQEIRYSEETPYHVTSVWTKGVTPPTNFTQGEDVFHAPYIANQGWYDITKTFNGKDDLLCGAATAGNMLHWWFDQNKEEIEKYLEEHPEKQKINFNGEQMFDVKEVIDTKDSQLDSKLFEYFKEKAFPYLSTKHLGVFPDHVIDMFINGYRLNLTNHGPTPVKEGSKDPRGGIFDAVFTRGDQSKLLTERHDFKEKTLKEISQLIKQELTEGKALGLSHTYANVRINHVINLWGADFDSEGNLEAIYVTDSDSNASIGMKKYFVGVNSAGKVAISAKEIEEDNIGAQVLGLFTLSTGQDIWEQTN
B16: PRT-15 (protein)
chain: MANQEIRYSEVTPYTITSVWTKGVTPPTNFTQGEDVFHAPYVANQGWYDITKTFNGKDDLLCGAATAGNMLHWWFDQNKDEIERYLKEHPEKQKINFNGEQMFDVKEAIDTKDSQTDSKLFEYFKDKAFPYLSTKHLGVFPDHVIDMFINGYRLSLTNHGPTPVKRGSKDPRGGIFDAVFTRGDQSKLLTSRHDFKEKNLNEISDLIKQELTEGKALGLSHTYANVRINHVINLWGADFNSNGNLKAIYVTDSDSNASIGMKKYFVGVNKAGKVAISAKEIKGDNIGAQVLGLFTLSTGQDIWEQTN
B17: PRT-20 (protein)
chain: MANQEIRYSEATPYHITSVWTKGVTPPANFTQGEDVFHAPYVPNQGWYDITKTFNGKDDLLCGAATAGNMLHWWFDQNKDQIERYLKEHPEKQKINFNGEQMFDVKEAIDTKDSQTDSKLFNYFKEKAFPYLSTKHLGVFPDHVLDMFINGYRLSLTNHGPTPVKEQSKDPRGGIFDAVFTRGDQSTLLTSRHDFKEKTLKEISDLIKKELQEGKALGISHTYANVRINHVINLWGADFNSEGNLEAIYVTDSDSNASIGMKKYYVGVNSAGKVAISAKEIEDDNIGAQVLGLFTLSTGKDIWEQTN

Numbering of substitutions follows the chain as printed.

This series deals with pooled human IgG.
On to B1, for which the Enzyme Activity Endpoint Assay: Fab′2 was 0 ng/µL, the Enzyme Activity Endpoint Assay: Fc came to 0 ng/µL, the Enzyme Activity Endpoint Assay: IgG is 151 ng/µL and the Enzyme Activity Endpoint Assay: scIgG turned out to be 0 ng/µL.
As for B2, the Enzyme Activity Endpoint Assay: Fab′2 was 42 ng/µL, the Enzyme Activity Endpoint Assay: Fc turned out to be 108 ng/µL, the Enzyme Activity Endpoint Assay: IgG turned out to be 13 ng/µL and the Enzyme Activity Endpoint Assay: scIgG was 13 ng/µL.
B3 yielded an Enzyme Activity Endpoint Assay: Fab′2 of 33 ng/µL, an Enzyme Activity Endpoint Assay: Fc of 111 ng/µL, an Enzyme Activity Endpoint Assay: IgG of 23 ng/µL and an Enzyme Activity Endpoint Assay: scIgG of 28 ng/µL.
For B4, the Enzyme Activity Endpoint Assay: Fab′2 is 53 ng/µL, the Enzyme Activity Endpoint Assay: Fc was 116 ng/µL, the Enzyme Activity Endpoint Assay: IgG amounted to 34 ng/µL and the Enzyme Activity Endpoint Assay: scIgG came out at 0 ng/µL.
B5 returned an Enzyme Activity Endpoint Assay (purified): Fab'2 of 729 ng/µL, an Enzyme Activity Endpoint Assay (purified): Fc of 196 ng/µL, an Enzyme Activity Endpoint Assay (purified): IgG of 0 ng/µL and an Enzyme Activity Endpoint Assay (purified): scIgG of 0 ng/µL.
B6: the Enzyme Activity Endpoint Assay (purified): Fab'2 came to 508 ng/µL, the Enzyme Activity Endpoint Assay (purified): Fc stood at 203 ng/µL, the Enzyme Activity Endpoint Assay (purified): IgG came to 0 ng/µL and the Enzyme Activity Endpoint Assay (purified): scIgG turned out to be 85 ng/µL.
On the same counts, the results for B7 are 706 ng/µL, 184 ng/µL, 29 ng/µL and 0 ng/µL.
Consider B8, for which the Enzyme Activity Endpoint Assay (purified): Fab'2 came out at 783 ng/µL, the Enzyme Activity Endpoint Assay (purified): Fc came to 204 ng/µL, the Enzyme Activity Endpoint Assay (purified): IgG came to 0 ng/µL and the Enzyme Activity Endpoint Assay (purified): scIgG stood at 0 ng/µL.
The protein B9 showed an Enzyme Activity Endpoint Assay (purified): Fab'2 of 597 ng/µL, an Enzyme Activity Endpoint Assay (purified): Fc of 161 ng/µL, an Enzyme Activity Endpoint Assay (purified): IgG of 0 ng/µL and an Enzyme Activity Endpoint Assay (purified): scIgG of 0 ng/µL.
In turn, B10 registered an Enzyme Activity Endpoint Assay (purified): Fab'2 of 22 ng/µL, an Enzyme Activity Endpoint Assay (purified): Fc of 331 ng/µL, an Enzyme Activity Endpoint Assay (purified): IgG of 880 ng/µL and an Enzyme Activity Endpoint Assay (purified): scIgG of 492 ng/µL.
Consider B11, for which the Enzyme Activity Endpoint Assay (purified): Fab'2 worked out at 691 ng/µL, the Enzyme Activity Endpoint Assay (purified): Fc was found to be 243 ng/µL, the Enzyme Activity Endpoint Assay (purified): IgG amounted to 1270 ng/µL and the Enzyme Activity Endpoint Assay (purified): scIgG came to 294 ng/µL.
Protein B12 displayed an Enzyme Activity Endpoint Assay (purified): Fab'2 of 699 ng/µL, an Enzyme Activity Endpoint Assay (purified): Fc of 454 ng/µL, an Enzyme Activity Endpoint Assay (purified): IgG of 513 ng/µL and an Enzyme Activity Endpoint Assay (purified): scIgG of 396 ng/µL.
Regarding B13, the Enzyme Activity Endpoint Assay (purified): Fab'2 is 195 ng/µL, the Enzyme Activity Endpoint Assay (purified): Fc came to 583 ng/µL, the Enzyme Activity Endpoint Assay (purified): IgG is 767 ng/µL and the Enzyme Activity Endpoint Assay (purified): scIgG came to 557 ng/µL.
On the same counts, the results for B14 are 176 ng/µL, 388 ng/µL, 465 ng/µL and 313 ng/µL.
As to B15, the Enzyme Activity Endpoint Assay: Fab′2 worked out at 44 ng/µL, the Enzyme Activity Endpoint Assay: Fc was determined as 105 ng/µL, the Enzyme Activity Endpoint Assay: IgG turned out to be 12 ng/µL and the Enzyme Activity Endpoint Assay: scIgG was 11 ng/µL.
Turning to B16, the Enzyme Activity Endpoint Assay: Fab′2 came to 52 ng/µL, the Enzyme Activity Endpoint Assay: Fc was 136 ng/µL, the Enzyme Activity Endpoint Assay: IgG was 18 ng/µL and the Enzyme Activity Endpoint Assay: scIgG came to 17 ng/µL.
In the case of B17, the Enzyme Activity Endpoint Assay: Fab′2 was 48 ng/µL, the Enzyme Activity Endpoint Assay: Fc came to 124 ng/µL, the Enzyme Activity Endpoint Assay: IgG is 15 ng/µL and the Enzyme Activity Endpoint Assay: scIgG stood at 13 ng/µL.

The values above are taken from patent US20250027068.
